Where “and” joins values, the source holds several entries; their conditions need not be identical. Equal entries are not always repeated.

In assay [1] the target is T1, human NPRA (human, UniProt P16066 33-1061).
T1 sequence (looked up): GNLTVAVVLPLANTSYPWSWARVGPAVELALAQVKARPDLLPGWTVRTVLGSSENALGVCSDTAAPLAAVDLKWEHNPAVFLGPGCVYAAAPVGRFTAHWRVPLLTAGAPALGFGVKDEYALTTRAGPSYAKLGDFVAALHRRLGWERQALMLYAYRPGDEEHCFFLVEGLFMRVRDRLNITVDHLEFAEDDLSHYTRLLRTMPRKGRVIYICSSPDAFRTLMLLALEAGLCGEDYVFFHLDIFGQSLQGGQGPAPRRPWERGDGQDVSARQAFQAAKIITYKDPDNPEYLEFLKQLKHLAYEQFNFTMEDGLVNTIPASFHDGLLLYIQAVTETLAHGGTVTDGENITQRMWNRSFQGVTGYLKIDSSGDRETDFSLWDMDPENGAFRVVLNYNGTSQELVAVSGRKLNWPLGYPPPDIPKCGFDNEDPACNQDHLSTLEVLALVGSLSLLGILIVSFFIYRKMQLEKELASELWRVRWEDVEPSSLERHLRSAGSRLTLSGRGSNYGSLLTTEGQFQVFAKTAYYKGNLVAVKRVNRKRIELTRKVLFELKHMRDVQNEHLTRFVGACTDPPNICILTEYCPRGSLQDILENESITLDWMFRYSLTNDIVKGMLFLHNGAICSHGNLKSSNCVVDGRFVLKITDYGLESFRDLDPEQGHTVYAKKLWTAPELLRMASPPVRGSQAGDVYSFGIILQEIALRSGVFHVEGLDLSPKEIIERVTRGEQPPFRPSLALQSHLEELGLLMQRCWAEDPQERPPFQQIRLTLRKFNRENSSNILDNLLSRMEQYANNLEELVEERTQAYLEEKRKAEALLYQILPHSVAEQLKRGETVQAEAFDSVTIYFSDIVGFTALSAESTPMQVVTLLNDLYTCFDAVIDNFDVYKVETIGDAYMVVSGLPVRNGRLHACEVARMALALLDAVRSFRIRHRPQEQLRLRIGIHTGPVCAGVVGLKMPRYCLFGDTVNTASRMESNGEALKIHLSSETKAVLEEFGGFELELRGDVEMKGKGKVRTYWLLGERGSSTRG
In words: cell-based or functional assay.

Assay [2] deals with T2, human NPRA (human, UniProt P16066 33-1061).
T2 sequence (looked up): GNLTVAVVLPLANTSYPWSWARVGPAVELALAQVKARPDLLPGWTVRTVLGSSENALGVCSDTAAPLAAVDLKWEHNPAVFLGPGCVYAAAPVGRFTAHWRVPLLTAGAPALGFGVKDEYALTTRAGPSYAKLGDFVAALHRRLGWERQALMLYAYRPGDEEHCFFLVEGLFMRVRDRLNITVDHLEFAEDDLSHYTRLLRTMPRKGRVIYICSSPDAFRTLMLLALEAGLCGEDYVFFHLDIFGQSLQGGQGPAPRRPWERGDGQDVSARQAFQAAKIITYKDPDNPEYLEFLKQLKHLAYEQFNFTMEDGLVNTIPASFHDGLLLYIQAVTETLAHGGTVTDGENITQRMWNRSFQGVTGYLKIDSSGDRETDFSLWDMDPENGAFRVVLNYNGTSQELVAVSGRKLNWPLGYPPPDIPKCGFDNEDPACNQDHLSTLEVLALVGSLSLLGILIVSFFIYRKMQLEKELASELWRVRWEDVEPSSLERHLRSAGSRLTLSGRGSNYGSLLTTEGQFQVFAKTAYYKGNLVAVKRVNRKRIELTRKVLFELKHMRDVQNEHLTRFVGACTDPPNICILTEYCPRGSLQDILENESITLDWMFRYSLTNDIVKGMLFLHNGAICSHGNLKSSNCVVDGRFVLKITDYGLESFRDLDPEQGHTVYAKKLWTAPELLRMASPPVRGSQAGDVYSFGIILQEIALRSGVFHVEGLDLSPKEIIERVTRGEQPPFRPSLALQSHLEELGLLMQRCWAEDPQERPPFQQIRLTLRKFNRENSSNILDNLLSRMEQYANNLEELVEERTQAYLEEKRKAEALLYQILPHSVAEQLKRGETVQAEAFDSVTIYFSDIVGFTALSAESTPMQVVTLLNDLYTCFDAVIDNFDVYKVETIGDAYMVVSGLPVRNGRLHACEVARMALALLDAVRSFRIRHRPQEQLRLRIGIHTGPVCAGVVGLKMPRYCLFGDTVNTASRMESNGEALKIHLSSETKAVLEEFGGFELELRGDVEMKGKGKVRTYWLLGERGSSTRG
In words: cell-based or functional assay. This is another data set of the same source.

B1: TPP-10294 (antibody, human IgG1, lambda)
heavy: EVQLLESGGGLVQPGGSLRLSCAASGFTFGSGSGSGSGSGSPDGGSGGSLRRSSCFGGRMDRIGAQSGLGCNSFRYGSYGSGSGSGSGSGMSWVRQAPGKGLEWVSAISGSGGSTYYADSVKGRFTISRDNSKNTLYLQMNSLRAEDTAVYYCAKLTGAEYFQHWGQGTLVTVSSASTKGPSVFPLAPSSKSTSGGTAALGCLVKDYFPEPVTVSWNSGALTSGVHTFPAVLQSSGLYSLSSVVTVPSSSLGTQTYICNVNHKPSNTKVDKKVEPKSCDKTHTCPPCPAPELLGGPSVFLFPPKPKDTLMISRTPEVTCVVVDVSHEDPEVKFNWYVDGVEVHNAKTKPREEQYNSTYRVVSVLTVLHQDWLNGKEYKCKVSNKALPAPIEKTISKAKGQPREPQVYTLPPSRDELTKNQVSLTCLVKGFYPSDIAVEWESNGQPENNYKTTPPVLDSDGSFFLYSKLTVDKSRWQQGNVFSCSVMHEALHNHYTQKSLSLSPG
light: QSVLTQPPSVSGAPGQRVTISCTGSSSNIGAGYDVHWYQQLPGTAPKLLIYGNSNRPSGVPDRFSGSKSGTSASLAITGLQAEDEADYYCQSYDSSLSGVVFGGGTKLTVLGQPKAAPSVTLFPPSSEELQANKATLVCLISDFYPGAVTVAWKADSSPVKAGVETTTPSKQSNNKYAASSYLSLTPEQWKSHRSYSCQVTHEGSTVEKTVAPTECS
For the molecule B1, in the assay with human NPRA [1], the activity rcs is 41%; the “average rel logEC50” value was -0.3 log vs TPP-5661; the “rel. logEC50* pcs” value is -0.5 log vs TPP-5661 and -0.6 log vs TPP-5661 and -0.4 log vs TPP-5661; the “rel. logEC50 pcs 4” value is -0.2 log vs TPP-5661. In the assay with human NPRA [1], the “rel. logEC50 pcs 7” value came to 0 log vs TPP-5661.

B2: TPP-10847 (antibody, human IgG1, lambda)
heavy: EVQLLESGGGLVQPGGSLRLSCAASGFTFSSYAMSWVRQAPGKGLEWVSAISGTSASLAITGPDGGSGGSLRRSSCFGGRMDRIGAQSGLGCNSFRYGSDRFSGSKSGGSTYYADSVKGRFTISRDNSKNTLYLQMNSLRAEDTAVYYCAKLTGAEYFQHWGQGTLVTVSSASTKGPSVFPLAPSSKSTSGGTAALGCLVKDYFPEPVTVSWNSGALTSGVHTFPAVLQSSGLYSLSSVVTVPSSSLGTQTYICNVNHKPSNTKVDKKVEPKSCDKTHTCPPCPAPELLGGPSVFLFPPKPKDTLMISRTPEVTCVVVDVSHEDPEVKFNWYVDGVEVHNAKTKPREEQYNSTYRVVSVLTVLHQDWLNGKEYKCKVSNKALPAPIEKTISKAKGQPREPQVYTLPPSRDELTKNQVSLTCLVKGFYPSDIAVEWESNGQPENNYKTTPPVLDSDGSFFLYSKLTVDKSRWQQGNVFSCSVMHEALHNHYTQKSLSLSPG
light: QSVLTQPPSVSGAPGQRVTISCTGSSSNIGAGYDVHWYQQLPGTAPKLLIYGNSNRPSGVPDRFSGSKSGTSASLAITGLQAEDEADYYCQSYDSSLSGVVFGGGTKLTVLGQPKAAPSVTLFPPSSEELQANKATLVCLISDFYPGAVTVAWKADSSPVKAGVETTTPSKQSNNKYAASSYLSLTPEQWKSHRSYSCQVTHEGSTVEKTVAPTECS
As to B2, in the assay with human NPRA [1], the “average rel logEC50” value was -0.5 log vs TPP-5661, the “rel. logEC50 pcs 5” value was 0 log vs TPP-5661 and the “rel. logEC50 pcs 6” value is -0.9 log vs TPP-5661.

B3: TPP-10283 (antibody, human IgG1, lambda)
heavy: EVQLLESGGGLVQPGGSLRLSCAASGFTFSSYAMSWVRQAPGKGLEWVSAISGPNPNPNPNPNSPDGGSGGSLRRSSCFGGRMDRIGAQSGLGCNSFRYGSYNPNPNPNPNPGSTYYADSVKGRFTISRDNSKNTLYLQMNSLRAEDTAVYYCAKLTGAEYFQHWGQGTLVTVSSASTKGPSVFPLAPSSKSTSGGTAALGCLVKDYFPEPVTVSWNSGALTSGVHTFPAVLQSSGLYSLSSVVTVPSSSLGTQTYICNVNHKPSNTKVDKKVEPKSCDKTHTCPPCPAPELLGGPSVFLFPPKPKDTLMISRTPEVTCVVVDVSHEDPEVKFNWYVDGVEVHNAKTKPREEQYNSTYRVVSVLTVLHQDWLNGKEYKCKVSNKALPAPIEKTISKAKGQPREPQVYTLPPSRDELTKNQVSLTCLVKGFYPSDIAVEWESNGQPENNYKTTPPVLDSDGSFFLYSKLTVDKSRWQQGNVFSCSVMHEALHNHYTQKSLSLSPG
light: QSVLTQPPSVSGAPGQRVTISCTGSSSNIGAGYDVHWYQQLPGTAPKLLIYGNSNRPSGVPDRFSGSKSGTSASLAITGLQAEDEADYYCQSYDSSLSGVVFGGGTKLTVLGQPKAAPSVTLFPPSSEELQANKATLVCLISDFYPGAVTVAWKADSSPVKAGVETTTPSKQSNNKYAASSYLSLTPEQWKSHRSYSCQVTHEGSTVEKTVAPTECS
B3: in the assay with human NPRA [1], the activity rcs was 83%, the “average rel logEC50” value was -0.8 log vs TPP-5661, the rel. activity rcs is -0.8 log vs TPP-5661 and the “rel. logEC50 pcs 5” value is -0.8 log vs TPP-5661.

B4: TPP-13061 (antibody, human IgG1, lambda)
heavy: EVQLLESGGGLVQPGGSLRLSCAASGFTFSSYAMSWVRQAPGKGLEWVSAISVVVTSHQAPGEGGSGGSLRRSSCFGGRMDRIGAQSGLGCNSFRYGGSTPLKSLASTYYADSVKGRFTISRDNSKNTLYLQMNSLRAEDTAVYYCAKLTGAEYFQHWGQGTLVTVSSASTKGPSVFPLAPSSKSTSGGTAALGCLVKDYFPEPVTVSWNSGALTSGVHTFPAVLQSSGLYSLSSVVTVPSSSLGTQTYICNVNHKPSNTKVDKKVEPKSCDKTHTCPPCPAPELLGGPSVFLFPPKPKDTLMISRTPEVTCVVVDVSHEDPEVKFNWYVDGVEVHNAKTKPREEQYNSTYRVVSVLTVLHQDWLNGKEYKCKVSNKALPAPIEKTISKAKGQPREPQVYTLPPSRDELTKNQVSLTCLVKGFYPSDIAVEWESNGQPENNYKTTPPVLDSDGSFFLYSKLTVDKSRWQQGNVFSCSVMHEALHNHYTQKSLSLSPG
light: QSVLTQPPSVSGAPGQRVTISCTGSSSNIGAGYDVHWYQQLPGTAPKLLIYGNSNRPSGVPDRFSGSKSGTSASLAITGLQAEDEADYYCQSYDSSLSGVVFGGGTKLTVLGQPKAAPSVTLFPPSSEELQANKATLVCLISDFYPGAVTVAWKADSSPVKAGVETTTPSKQSNNKYAASSYLSLTPEQWKSHRSYSCQVTHEGSTVEKTVAPTECS
For the molecule B4, in the assay with human NPRA [1], the “average rel logEC50” value is -0.7 log vs TPP-5661; the “rel. logEC50* pcs” value was -0.6 log vs TPP-5661 and -0.8 log vs TPP-5661.

B5: TPP-13230 (antibody)
heavy: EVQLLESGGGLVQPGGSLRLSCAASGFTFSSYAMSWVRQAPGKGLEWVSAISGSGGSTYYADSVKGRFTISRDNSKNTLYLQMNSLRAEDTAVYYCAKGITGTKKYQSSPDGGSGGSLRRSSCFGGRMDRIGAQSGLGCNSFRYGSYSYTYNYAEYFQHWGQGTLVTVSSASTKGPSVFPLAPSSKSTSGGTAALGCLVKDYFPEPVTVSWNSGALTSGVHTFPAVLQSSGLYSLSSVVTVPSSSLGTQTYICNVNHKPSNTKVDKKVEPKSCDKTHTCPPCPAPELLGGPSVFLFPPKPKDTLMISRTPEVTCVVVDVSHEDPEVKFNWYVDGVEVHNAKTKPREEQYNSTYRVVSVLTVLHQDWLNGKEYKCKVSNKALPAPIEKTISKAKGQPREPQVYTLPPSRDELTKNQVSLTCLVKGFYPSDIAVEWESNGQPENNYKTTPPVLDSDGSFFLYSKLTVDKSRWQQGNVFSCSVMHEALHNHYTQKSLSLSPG
light: QSVLTQPPSVSGAPGQRVTISCTGSSSNIGAGYDVHWYQQLPGTAPKLLIYGNSNRPSGVPDRFSGSKSGTSASLAITGLQAEDEADYYCQSYDSSLSGVVFGGGTKLTVLGQPKAAPSVTLFPPSSEELQANKATLVCLISDFYPGAVTVAWKADSSPVKAGVETTTPSKQSNNKYAASSYLSLTPEQWKSHRSYSCQVTHEGSTVEKTVAPTECS
With B5, in the assay with human NPRA [2], the “average rel logEC50” value is -0.3 log vs TPP-5661 and the “rel. logEC50 pcs 9” value was -0.3 log vs TPP-5661.

B6: TPP-10274 (antibody)
heavy: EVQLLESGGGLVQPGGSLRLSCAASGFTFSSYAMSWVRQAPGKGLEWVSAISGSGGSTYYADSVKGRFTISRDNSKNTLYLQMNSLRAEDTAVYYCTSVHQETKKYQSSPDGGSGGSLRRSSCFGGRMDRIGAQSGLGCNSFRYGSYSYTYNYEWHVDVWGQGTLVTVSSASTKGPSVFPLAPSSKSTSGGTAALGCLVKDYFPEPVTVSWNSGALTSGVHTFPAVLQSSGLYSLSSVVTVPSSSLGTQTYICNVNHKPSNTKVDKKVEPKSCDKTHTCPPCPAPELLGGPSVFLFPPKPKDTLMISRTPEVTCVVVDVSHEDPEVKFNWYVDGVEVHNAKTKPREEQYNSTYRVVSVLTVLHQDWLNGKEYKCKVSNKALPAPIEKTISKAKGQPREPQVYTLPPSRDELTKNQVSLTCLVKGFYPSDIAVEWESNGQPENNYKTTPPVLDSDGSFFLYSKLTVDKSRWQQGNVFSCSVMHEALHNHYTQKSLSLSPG
light: QSVLTQPPSVSGAPGQRVTISCTGSSSNIGAGYDVHWYQQLPGTAPKLLIYGNSNRPSGVPDRFSGSKSGTSASLAITGLQAEDEADYYCQSYDSSLSGVVFGGGTKLTVLGQPKAAPSVTLFPPSSEELQANKATLVCLISDFYPGAVTVAWKADSSPVKAGVETTTPSKQSNNKYAASSYLSLTPEQWKSHRSYSCQVTHEGSTVEKTVAPTECS
For the molecule B6, in the assay with human NPRA [1], the activity rcs amounted to 71%, the “average rel logEC50” value was -0.1 log vs TPP-5661, the “rel. logEC50 pcs 2” value was -0.3 log vs TPP-5661 and the “rel. logEC50 pcs 3” value is -0.2 log vs TPP-5661. In addition, in the assay with human NPRA [1], the “rel. logEC50 pcs 7” value worked out at 0 log vs TPP-5661.

These data come from patent US20210147504A1 (Bayer, published 2021).
